Experimental data taken from paper PMC7268104, “WRKY Transcription Factor OsWRKY29 Represses Seed Dormancy in Rice by Weakening Abscisic Acid Response”.

Target: OsWRKY29-MBP (Oryza sativa (rice; cv. Hwayoung?), UniProt Q6IEQ2 1-288)
Assay: EMSA; unlabeled probe competes dose-dependently; LightShift Chemiluminescent EMSA kit binding buffer, 1 ug protein in 20 ul, room temperature, 30 min; 6.5% native PAGE, 0.5x TBE; salt and pH not stated
Details: protein: recombinant; tags: MBP (pMAL-c2x fusion); blunt

Sequence of OsWRKY29-MBP (Q6IEQ2 entry or part of it): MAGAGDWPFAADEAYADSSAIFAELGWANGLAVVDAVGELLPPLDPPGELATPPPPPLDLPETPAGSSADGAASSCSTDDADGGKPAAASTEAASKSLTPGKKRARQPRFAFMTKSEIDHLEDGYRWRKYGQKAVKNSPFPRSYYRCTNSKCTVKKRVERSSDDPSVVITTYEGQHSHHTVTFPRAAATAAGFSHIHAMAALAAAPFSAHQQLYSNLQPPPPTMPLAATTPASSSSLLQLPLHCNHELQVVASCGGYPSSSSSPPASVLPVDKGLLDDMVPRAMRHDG

Binder | binding result
OsVP1 promoter V1 probe (dsDNA) DNA 1: TCAACCTACCATATCGCTCAAATGATTGTTGACCTGTAACACCCAACGACCTTTATTTAC DNA 2: GTAAATAAAGGTCGTTGGGTGTTACAGGTCAACAATCATTTGAGCGATATGGTAGGTTGA | binds
OsABF1 promoter A1 probe (dsDNA) DNA 1: AGCGTTAAAGCCATATGTTAAGAACGCGTTGACGAGAAGCTCGAGTTTGAGGTTATGGCC DNA 2: GGCCATAACCTCAAACTCGAGCTTCTCGTCAACGCGTTCTTAACATATGGCTTTAACGCT | binds
OsVP1 promoter V3 probe (dsDNA) DNA 1: CGGTCAAAACCAGCACGCGCCGAAATCCCGTACTTCCCACTGACACGTAGGCCCCACTGTCATTGACCG DNA 2: CGGTCAATGACAGTGGGGCCTACGTGTCAGTGGGAAGTACGGGATTTCGGCGCGTGCTGGTTTTGACCG | binds
